The values below come from patent US20090221027A1 (BASF AG, priority 2005, published 2009).

Data set [1] has as its target C. glutamicum MetY enzyme (Corynebacterium glutamicum, UniProt Q79VI4). As to the kind of experiment: biochemical.
Experimental: Cells were harvested and cell lysates from pellets were obtained using the Ribolyzer protocol and machine (Hybaid, UK). Cell extracts were centrifuged to obtain a soluble supernatant fraction of cytosolic protein. The method to determine the O-acetyl-homoserine sulfhydrylase activity in cell extracts was performed essentially as described in Yamagata, Methods in Enzymology, 1987, Vol. 143 pp 479-480. Cell extracts were added to a buffer of 100 mM KH2PO4 (pH 7.2) containing 5 mM O-acetyl-homoserine and 200 μM pyridoxal phosphate. […] The reaction was initiated by addition of Na-sulphide solution to a final concentration of 4 mM. After a 15 minute incubation at 30° C., the reaction was terminated and acidified by addition of 1/10 volume of 30% trichloroacetic acid. After centrifugation (5 minutes at 13,000 rpm) to remove precipitated protein, incubation at reduced atmospheric pressure in a Speed-Vac evaporator was performed to deplete residual H2S. The sulphide depleted solution was reacted with cyanide and nitroprusside as described in Yamagata supra. Absorption at 520 nm was determined and background corrected.
Data set [2] can be described thus: O-acetyl-homoserine sulfhydrylase activity in crude cell extracts. Type of data set: biochemical.
Data set [3] can be described thus: Cystathionine γ-synthase activity in crude cell extracts. Type of data set: biochemical.
Data set [4] in a line: Inhibition of the enzyme by methionine (Table 1). Type of data set: biochemical.
The conditions of data set [5]: reported specific activity; Bsu MetI from T7 promoter in E. coli; cited from earlier work.
For data set [6] the following is noted: reported specific activity; Bsu MetI from T7 promoter in E. coli; cited from earlier work. This is another data set of the same source.
For data set [7] the following is noted: H.-S. Lee, personal communication; cited from earlier work.
[8] abbreviates: in C. glutamicum from P15, crude extracts.
[9] abbreviates: in E. coli from P15, crude extracts.

Where two headings read alike, the source gives them in different places.

In data set [1], `CSCC[C@H](N)C(=O)O` [methionine, L-methionine] returned an IC50 of about 5 mM.

B1: Bsu MetI: Bacillus subtilis O-acetyl-homoserine sulfhydrylase with cystathionine-gamma-synthase activity, SEQ ID NO:2 (protein)
chain: MSQHVETKLAQIGNRSDEVTGTVSAPIYLSTAYRHRGIGESTGFDYVRTKNPTRQLVEDAIANLENGARGLAFSSGMAAIQTIMALFKSGDELIVSSDLYGGTYRLFENEWKKYGLTFHYDDFSDEDCLRSKITPNTKAVFVETPTNPLMQEADIEHIARITKEHGLLLIVDNTFYTPVLQRPLELGADIVIHSATKYLGGHNDLLAGLVVVKDERLGEEMFQHQNAIGAVLPPFDSWLLMRGMKTLSLRMRQHQANAQELAAFLEEQEEISDVLYPGKGGMLSFRLQKEEWVNPFLKALKTICFAESLGGVESFITYPATQTHMDIPEEIRIANGVCNRLLRFSVGIEHAEDLKEDLKQALCQVKEGAVSFE
Take B1: the results for the O-Ac-Hse sulfhydrylase activity in data set [2] (setting [8]), in data set [2] (setting [9]) and in data set [5] were 6.3 nmol/min, 199 nmol/min and 7.0 µmol/min/mg, respectively. Moreover, the “Cystathionine γ-synthase activity” value was 30.2 nmol/min in data set [3] (setting [8]), 1900 nmol/min in data set [3] (setting [9]) and 1.5 µmol/min/mg in data set [6]. The Inhibition by methionine entry in data set [4] (setting [8]) and in data set [4] (setting [9]) was “No” in each case.

B2: Cg1 MetY: C. glutamicum O-acetylhomoserine sulfhydrylase (protein, UniProt Q79VI4 1-437, looked up)
O-acetyl-L-homoserine …: MPKYDNSNADQWGFETRSIHAGQSVDAQTSARNLPIYQSTAFVFDSAEHAKQRFALEDLGPVYSRLTNPTVEALENRIASLEGGVHAVAFSSGQAATTNAILNLAGAGDHIVTSPRLYGGTETLFLITLNRLGIDVSFVENPDDPESWQAAVQPNTKAFFGETFANPQADVLDIPAVAEVAHRNSVPLIIDNTIATAALVRPLELGADVVVASLTKFYTGNGSGLGGVLIDGGKFDWTVEKDGKPVFPYFVTPDAAYHGLKYADLGAPAFGLKVRVGLLRDTGSTLSAFNAWAAVQGIDTLSLRLERHNENAIKVAEFLNNHEKVEKVNFAGLKDSPWYATKEKLGLKYTGSVLTFEIKGGKDEAWAFIDALKLHSNLANIGDVRSLVVHPATTTHSQSDEAGLARAGVTQSTVRLSVGIETIDDIIADLEGGFAAI
As for B2, in data set [5], the O-Ac-Hse sulfhydrylase activity was 6.0 µmol/min/mg. Further, the Inhibition by methionine result in data set [7] was “Yes”.
